From patent US20260055188A1 (SHENGHE CHINA BIOPHARMACEUTICAL, published 2026)

Experiments:
[1] = target: T1, Human-TNFR2-His (manufacturer: SINO, CAT: 10417-H08H) (human, UniProt P20333 23-257); experiment: ELISA: Human-TNFR2-His coated (0.3 µg/mL), antibody titrated, goat anti-human IgG Fc detection, OD450 (Example 10)
T1 construct: Bought protein; also called human TNFR2 protein; TNFR2 protein; not shown: His tag
T1 sequence (looked up): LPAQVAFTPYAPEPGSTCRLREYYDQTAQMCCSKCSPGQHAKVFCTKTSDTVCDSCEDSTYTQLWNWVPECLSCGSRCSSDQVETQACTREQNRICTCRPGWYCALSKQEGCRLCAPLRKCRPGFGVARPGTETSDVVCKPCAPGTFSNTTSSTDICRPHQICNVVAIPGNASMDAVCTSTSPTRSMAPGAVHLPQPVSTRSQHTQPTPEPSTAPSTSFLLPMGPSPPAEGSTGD
Protocol: Human-TNFR2-His (manufacturer: SINO, CAT: 10417-H08H, LOT: LC12SE2902) was diluted to 0.3 μg/mL with a coating solution (1×PBS, pH7.4), and coated into a 96-well ELISA plate at 100 μL/well overnight at 4° C. The coating solution was poured off. Each well was washed with 1×PBST at 300 μL, washed 4 times with a plate washer, and patted dry on a flat paper. It was blocked with 3% skim milk powder at 300 μL/well, and incubated at 37° C. for 1 h. The blocking solution was poured off, washed 4 times with a plate washer, and patted dry on a flat paper. Negative control and positive control were set up. […] The positive control and antibody were diluted to 10 μg/mL with 3% skim milk powder as the starting concentration, and then diluted by 3-fold gradient (11 gradients in total). A blank well was set up and only the diluent was added. It was incubated at 37° C. for 1 h at 100 μL/well. The liquid in the well was discarded, washed 4 times with a plate washer, and patted dry on a flat paper. Goat anti-human IgG Fc was diluted with 3% skim milk powder at 1:20000, and incubated at 37° C. for 1 h at 100 μL/well. It was washed 6 times with a plate washer, and patted dry on a flat paper. TMB color developing solution was added at 100 μL/well, and wrapped with aluminum foil. Color development was performed at 37° C. in the dark for 8 min. […] Readings were taken at 450 nm on an ELISA reader.

[2] = target: T1, Human-TNFR2-His (manufacturer: SINO, …); experiment: BLI, antibody on AHC sensor, 100 nM human-TNFR2-His in solution
Protocol: The AHC sensor was soaked in 0.02% PBST (0.02% Tween 20, pH 7.4, 1×PBS) as a buffer for 600 s to remove the sucrose covering the sensor surface. The AHC sensor was equilibrated with 0.02% PBST (0.02% Tween 20, pH 7.4, 1×PBS) as a buffer for 60 s, the antibody in the sample plate was solidified for 300 s, and the secondary equilibration buffer was used for 180 s. 100 nM human-TNFR2-His (manufacturer: SINO, CAT: 10417-H08H, LOT: LC12SE2902) protein was bound to the antibody for 300 s and then dissociated for 600 s. After dissociation, 10 mM glycine (pH 2.0) was used as a regeneration buffer for 30 s. The sensor was regenerated with 10 mM glycine (pH 2.0).

EC50 (read off the curve) [1]: ~0.05 nM | Kd [2]: 1.61 nM | koff [2]: 0.000427 s⁻¹ | kon [2]: 266000 M⁻¹ s⁻¹
B1: Positive control 2 (variable region SEQ ID NO: 41) (VHH)
VHH: EVQLVESGGGLVQPGGSLRLSCAASGSRLDYYAVAWFRQAPGKEREEVSCITYSGGSTNYAESVKGRFTISRDNSKNTLYLQMNSLRAEDTAVYYCTTEPYGSSCPLSGYDTWGQGTLVTVSS
notes: not shown: it was loaded on an AHC (anti-human Fc) sensor
